For this series, the target named is T1, glucocorticoid receptor (GR) ((MCF-7 breast cancer cells)) (UniProt P04150).
T1 sequence: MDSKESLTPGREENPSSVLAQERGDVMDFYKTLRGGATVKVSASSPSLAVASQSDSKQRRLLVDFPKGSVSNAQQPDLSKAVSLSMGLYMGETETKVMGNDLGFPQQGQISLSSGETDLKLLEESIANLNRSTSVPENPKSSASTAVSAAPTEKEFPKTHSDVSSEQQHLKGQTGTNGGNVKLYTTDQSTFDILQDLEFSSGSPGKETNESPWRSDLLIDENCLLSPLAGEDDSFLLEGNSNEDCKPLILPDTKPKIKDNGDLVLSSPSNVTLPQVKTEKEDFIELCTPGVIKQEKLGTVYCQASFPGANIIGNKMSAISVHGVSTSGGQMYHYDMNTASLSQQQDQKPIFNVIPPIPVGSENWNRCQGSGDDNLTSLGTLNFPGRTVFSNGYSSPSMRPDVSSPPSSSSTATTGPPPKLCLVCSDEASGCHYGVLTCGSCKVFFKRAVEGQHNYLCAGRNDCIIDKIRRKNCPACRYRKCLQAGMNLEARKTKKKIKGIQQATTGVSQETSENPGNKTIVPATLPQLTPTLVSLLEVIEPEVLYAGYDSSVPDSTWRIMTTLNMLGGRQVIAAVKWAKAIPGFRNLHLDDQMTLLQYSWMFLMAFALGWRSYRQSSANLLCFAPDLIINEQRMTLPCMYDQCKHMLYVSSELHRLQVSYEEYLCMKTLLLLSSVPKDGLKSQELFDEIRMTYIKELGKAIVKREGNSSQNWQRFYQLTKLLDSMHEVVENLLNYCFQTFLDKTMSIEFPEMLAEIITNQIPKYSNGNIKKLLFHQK
In words: EMSA supershift. The following applies: LightShift Chemiluminescent EMSA Kit (Thermo), 6% polyacrylamide gel, antibody 1:250, additional 30 min, buffer, salt, pH and temperature not stated. A general note: A gel shift assay detects complexes by their altered migration in electrophoresis.

As to “TTCTGATCTTTGTTTTACTTTTCTTGGCTTCTG (double strand) [rs28714259 A (risk) probe]”, the binding signal (scale: fraction of G-probe supershift band intensity) is less than 0.4.

For “TTCTGATCTTTGTTTTGCTTTTCTTGGCTTCTG (double strand) [rs28714259 G (major) probe]”, the binding signal (fraction of G-probe band intensity) (dexamethasone-treated MCF-7 nuclear extract, anti-GR antibody, reference) is 1.
